Laboratory results from the DeepSol protein solubility set.

assay: soluble on expression in E. coli; label from the status in PepcDB or PDB records

Soluble on expression in E. coli, not soluble:
MSGNTVKLNVGGTVFETLKSTLTKHDGFFKALIETDVPAEKDDSNCFFIDRSPKHFETVLNYMRSGDVVLPDSKKDMLELKKEAEYYLLSNLAKLCQPPTDNFKTCTPEELMRVVANTDKKVIMINYLTYNGELVFYPWGFNLVHFLIQNRDYVEDVYFRRTESQYPEDGPFPNEKPYWTFLVYNSTRSGRRPFRHTVDLEDCMGHM, MPNEQKRFVTGPAGRLETVVTLPEGAPRGLAIVAHPHPLYQGSMDNKIVYILSRAFIEQQYITVKFNFRGVGASEGSYAEGKGEIEDVMAVTQAMREQYDTGPEPLPLTLAGFSFGGAVQAHVAQQLKPSRLVLVAPSVERLQAPPVVDHARHILVIQGDQDTIVPLQSILNWAAPQTLPVTVIPGAEHFFHGKLHVLKNVILQSCSISQAATSLYP, AHHHHHHGSIIRGDEPEQKALLRKLYRAGNYFMMGDEAIAYGAIFAGCRFYAGYPITPSSEIAETMARELPKVGGYYLQMEDEIASIAAIIGASWTGLKAMTATSGPGFSLMQENIGYAVMTETPVVIVDVQRSGPSTGQATKGAQGDFFQARWGTHGDHPIIAVSPISVEDAFWETIRAFNIAEQLRTPVIVLFDGILGHTREQIRIPDPDEVEISYRKLPRNEEEAKLPFGDPHGDGVPPMPIFGKGYFTHVTGSTHKENGLRDVYTPEVHDRLVRRLHKKIEKNRHIYEKYNEYFTDDAEILVVSWGVSARPSLGAVKKAREEGIKAGLFVPKTVHPFPGEKMRELGKKVRAILVPEMNLGQLILEVQRFVNDDVILKGVNKIGGVPITVEEILREIRGVA, MKRVLVLGATGRTGNFVIKELSKYKSIQLIAGLRSQKDKERLPKINAAIETVVIDIADVCSLRKALTDSDIVVQAIRLRGDISENALIQLDQRIHQAFNPSRKTHLVTVGGAGALKLEANQRFWENEYFPRQTLPRGIAHARLRDYLEKSFFNHTWTYLIPPPVYVAEGARTGSYNRYSSAQKEDFFLSKSISYADFALAIGNAVMEEWQGVYLIAEKELEHHHHHH, MGSDKIHHHHHHMQRKKIGVALGSGAAKGWAHIGVLNALTEMGIEVDVVAGCSIGALVGAAYATNNLSSMDRWVRSFGYWDVIRLMDLSWQRGSLLRGDRVFNSVKHLLHTTQIEDCDIKYGVVTTNLSTGRELWLTEGDLHQAMRASCSMPGLLSPVRFNDYWLVDGAVVNPVPVSLARAMGADIVIAVDLQHDASLNHQDLLSIKPTASDIDAENVPQDWRSRIRERLLRGRRHPAESSPTAMEIMSTSIQILENRLKMTRMAGDPPDVLLQPHCPQIATLDFHRAQEAIDAGYKAVEKMRDELLPLAKEA, MGSDKIHHHHHHMLEIIMSSIKSRQLTHSALASNIDIHDVTHFLLELDALKRVNRRSYVTGANRLENSAEHSWHLAMACWSIAELFELDVNQEKLLKMALVHDLGEIDAGDTFLYADTRGDAHLEERAGIARLQGERGNGISNLNEIWEEQETGSSTETQLLKVVDRLLPFLLNLNTNGKTWIELSVTRSQVSEAHAFIKDSFPSIHDWLAAQIEFATQQGWLIDT, MGSDKIHHHHHHFEERSGVVPCGTPWGQWYQTLEEVFIEVQVPPGTRAQDIQCGLQSRHVALAVGGREILKGKLFDSTIADEGTWTLEDRKMVRIVLTKTKRDAANCWTSLLESEYAADPWVQDQMQRKLTLERFQKENPGFDFSGAEISGNYTKGGPDFSNLEKDGT, MILDKKSYDLLSYLLKLETPETVMAISHALNQSRRKVYYQLDKINQALPKGVDQIISYPRLGILLTADQKAACRLLLEEVTDYNYVMKSDERRRLSSIYIAVSTERVTIDKLMQINDVSRNTILNDLTELREELEDKQYKIQLHATKARGYYFGCHPMALIQYLYKLLVDVYQGGNTSFIDIFNRKLSEIQGLSVYFSKDILTYFHEYLFLSQASLGKTINTQDSQFMLQILPFMLLSYRNMRLDSETKSALKQEFHLIWKRKEYHIAQDLARELYHNFKLHLDDIEVSMVAMLMLSFRKDQDHHVESQDYDDMRATISHFIDQLESRYQLHFTHKQDLLKRLTTHCKALVYRKAYGIFLVNPLTDHVKEKYEELFAMTQSCATILEQDWTISLTDDDIAYLTIHLGGELRHNNTEQEKTKLVIVSDDGIGIQKLLFKQCQRYLANGQIEAVFTTEQYQSVYDLLAVDMIVATTDTLKTKIPMLIVNPILSDDDIIKLIRFSKQGRLSEHSRFSTELTKAIEAVVKDESDRYALVSKIEKLIHRELL, MGSDKIHHHHHHMKQIDLVYRTAFAELAQRTFDAQFQADFPLEGRFVAVPVKGRNYWYFDLPTPEGKDKRRYVGPQDDVDITARVKAHRQVKDDIRERRKLVGMLLRSGGMSAPDRFAGEVTKALADAGLFRLRALLVGSVAFSCYSGLLGVRLPGTSMQTGDADFAQDFAISAEVEDSLPPILDLLRSIDSTFRAVPHQADNAKVVAFSNSVNYRVEFLTTNRGSDDYTGKPSPMPALGGASAENLRFLDFLIYEPVRTVLLHREGVSVNIPAPERYAIHKLIVASRRRTDALGRAKRDKDLVQASLLCEALVETRQSHLLADAYREAWTRGEAWQEGILSGLVLMPDNGKLALANALGVTVDRLGKA, MMDFSHIVSEDKIKRAIKDGDFQNLPGMGKPLPKMTRHTCRNRCAWAIVFLEHHHHHH, WTVIGGYLIVAGKDATTNEMLIKRYVEKNDIVFHTLMEGAPFTIIRTEGSEEIPDENILFEVAKFAASHSRAWKLGIGSADVYWVRPDQISKTAESGEYLKK, VPDKSPDLLFELLNDFFTQLLSAGESESMDNLIELDLTFSQVRMLFALVQHGEPLPINEVAERLRLSVAAAGRNVDQLVKLGLVVRREDERDRRVKRVSLSEAGHKVATQHIECKRDQLRRFAWRVPEIERTRLIEALQPILAGESLRELNQEILG, MDYQQDEYDEPFRIHLNLDNLTEDEAKARFSLIYDQHAQTMKRRETNDYLRPICIDGTDVSNKLNHIIRKNMDLFPVDKSIFNMRAITMALWYFISRGHAAVVFLPTNLRDFAQKCSDPHELSLLAKLELIVFDESTALNPSSAVLLSKTVATWAQNNDGCIVGSRKKYGLLGQRYSELIDRVTNTLISPAFTPDNELEICDLVRLVLAADEVRRNDENSNCMGYQLLASDQVVIMSKLAKMIGKDSMIDLCNRARELNTSTNPNYRNIFNNQKQSTSMGRVYQSPYHFNDPFLPDYVAPPPPIALESVAKPTRIGHRHSIYRVGEDKSTELENGDNRRKAVYRGALIDALQPMFGLEKATALVNGNPDQNEINDLIELGINQ, MQAPVVTETCQTNEEGEQLVLRLRAPVERPRVTWGAGVIDNEHMGRLKSNCCCIYTPPRVWDDPSTWEPEEHETEHCRGHTLPEKKQKPQGGHGSDKDEDKGNCGCDHC, MGSDKIHHHHHHMLLKPDQRLKLDDTDDNLFYAYPRFVTHVDEGFIQQLTDLYRERLQPNTRILDMMSSWVSHLPEEIKFAHVEGHGLNAEELGRNPQLNHYFVQNLNENPGLPLPDQEFDAVLNCVSVQYLQYPEAVFSEIHRILKPGGVAIISFSNRMFYQKAIQAWRDASEPGRLELVKRYFASVPGFSTPEIIARKSTAPNFLQWLGAPGGDPFYAAIAHREGFA

Soluble on expression in E. coli, soluble:
MASKDAQVTLSRGEQSVKRIKEFNPKKDNFSILLMGIDARPGQSMDKERSDAMVLATFNRKDKSVKLLSIPRDSYVNIPGRGYDKITHAHSLGGRDLSTETVENLLDIPVDYVMEANFSAFKEVVDELGGVPITIKEDYIVRQIKKDTKGKVNLQTGEQTLGGEEALAYVRTRKADTDLKRGERQMEVIKSIINKSKSLTSIPAYDDILDTVGKNVSMNLSLNDAIGLIPFMTSIQTVDTLQLKGSDYQPGKVYYFQLDQENLNEIKQELKQQLDVLEHHHHHH, GVVGSDARSRGRVPGYASSSLYRESGIISARQLALLQRMLPRLRLEQLFRCEWLQQRLARGLALGREEVRQILLCAAQDDDGWCAELGDRVNLAVPQSMIDWVLLPVYGWWESLLDQAIPGWRLSLVELETQSRQLRIKSEFWSRVAELEPEQAREELARVAKCQARTQEQVAELAGKLETASALAKSAWPNWQRGMATLLASGGLAGFEPIPEVLECLWQPLCRLDDDVGAADAVQAWLHERNLCQAQDHFYWQS, SASSSKALIESIGSLDKDSYVSLLSKLIGESKFVQNNPPELIPQEDLIVKHVLDSLRPYSTETGGGPLVINHVAYHSGRGNLIVEYPGSVPGKILSFVGMHMDVVTANPDDWEFDPFSLSIDGDKLRGRGTTDCLGHVALVTELMKKLGQAKPALKSTVVAVFIASEENSSIPGVGVDMLVKDKLLDKLKSGPLYWIDTADKQPCVGTGGMIPWKLQFTGKLFHSGLAHKAINAMELAMEGLKEIQARFYRDFPPHPQEEVYGFATPSTMKPTQWCYPAGGINQIPGECTVSGDVRLTPFYDVKEVITKLQEYVDDINGNIERLETRGPVSKYVLPDENLRGRLTLSFDEASAGVACNLDSPGFHVLCKATEEVVGHVKPYSITGTLPLIRDLQDEGFDVQTSGYGLMATYHAKNEYCLLTDMCQGFDVFIRIISQLEQV, MELPVVDLSSYLDFSGDELGSDLLESCRQVSRILKETGALIVKDPRCCAQDNDRFIDMMENYFEKPDDFKRLQQRPNLHYQVGATPEGVEVPRSLVDEEMQEKFNTMPNEYKPHIPKGPDHKWRYMWRVGPRPSNTRFKELNSEPVVPEGFPGWEEVMDSWGYKMISAVEVVAEMAAIGFGLPKDAFTSLMKQGPHLLAPTGSDLNCYNEEGTIFAGYHYDLNFLTIHGRSRFPGLYIWLRNGEKVAVKVPVGCLLIQAGKQIEWLTAGECIAGMHEVVVTSKTKDAITLAKEQNRSLWRVSSTLFAHIASDAELKPLGHFAESSLASKYPAIPAGEYVEQELSVINLKGNKGSS, MTEITHRTKTRPVKVGNLTIGGNNEVVVQSMTTTKTHDVEATVAEIKRLEEAGCQVVRVACPDMRAAEAIPAIKKQISIPLVVDIHFDYKLALKAIEGGADKIRINPGNIGKRHKVEAVVKAAKEKGIPIRIGVNAGSLEKRILDKYGYPTADGMVESALHHIKILEDLDFHDIIVSMKASDVNLAIEAYEKAAKAFDYPLHLGITESGTLFAGTVKSAAGLGAILNMGIGNTVRVSLSADPVEEVKVARELLKSFGLASNAATLISCPTCGRIEIDLISIANEMEEYISKIRAPIKVAVLGCAVNGPGEAREADIGIAGARGEGLLFRKGEIVRKVPEETMVEELKKEIDKIAEEYFAKQKELEKALEHHHHHH, MKLQQLKYALEVYQHNLNVSEAAEALFTSQPGISKQIKLLEEEIGIQIFIRSGKRVVSVSQPGKVVLDIAERILRDVQNIKNIGSEFTGQDSGSLTVATTHTQARYALPLIVADFVKRYPKVNLTIKQGSPAAIARMVTSGEADLAIVTERIDDHPELGKLPCYDWTHAVIVPNDHPLLECRNPLRIEDLARFPLITYEFAFNAGSSIARAFSKARLEQPDVALAAADTDVLKTYVRLGLGVGLMAKMAYNPDTDGDLQLVDAAHLFEPSPTWIALRSDTYLRGYAYDFIQAFAPHLTREKVDRILYTPISEDFSI, MATSSAASVDMEDIQTVDLMSELLRRMKCASKPDKRLVFIGPPGSGKGTQSPVIKDEFCLCHLSTGDMLRAAVAAKTPLGVKAKEAMDKGELVSDDLVVGIMDEAMNRPKCQKGFILDGFPRTVTQAEKLDEMLNRRGAQIDKVLNFAIDDSVLEERITGRWIHPSSGRSYHTKFAPPKVPGVDDLTGEPLIQRKDDNADVLRSRLDAFHKQTQPVIDYYAKKENLVNIPAEKAPEEVTKVVKKVVST, MHHHHHHSSGVDLGTENLYFQSMINSFYAFEVKDAKGRTVSLEKYKGKVSLVVNVASDCQLTDRNYLGLKELHKEFGPSHFSVLAFPCNQFGESEPRPSKEVESFARKNYGVTFPIFHKIKILGSEGEPAFRFLVDSSKKEPRWNFWKYLVNPEGQVVKFWRPEEPIEVIRPDIAALVRQVIIKKKEDL
